Measured values reported in PMC12880628, “X-Ray Crystal Structure of the N-Terminal Domain of Staphylococcus Aureus Cell-Cycle Protein GpsB” (Crystals, 2025).

Target: the molecule itself
Test: crystal structure; SaGpsB 1-75 at 5 mg/mL, no ligand; reservoir 1.0 M succinic acid, 0.1 M HEPES pH 7.5, 1 %w/v PEG 2000 MME; one dimer in the asymmetric unit; molecular replacement

B1: N-terminal domain (residues 1–75) of Staphylococcus aureus GpsB (domain or fragment, Staphylococcus aureus strain NCTC 8325, UniProt Q2FYI5 1-75, looked up)
chain: MSDVSLKLSAKDIYEKDFEKTMARGYRREEVDAFLDDIIADYQKMADMNNEVVKLSEENHKLKKELEELRLRVAT
notes: GpsB, Staphylococcus aureus strain NCTC 8325, Uniprot Q2FYI5, SAOUHSC_01462, residues 1-75 (N-terminal dimerization domain); Asymmetric homodimer in the crystal; also called SaGpsB; GpsB 1–75; source: E. coli BL21 (DE3), purified (Ni-NTA, SUMO protease cleavage, anion exchange, Superdex75 SEC); not shown: 10xHis, N-terminal, cleaved; SUMO, N-terminal, cleaved
stoichiometry N: 2
